System: peptide library, one residue held at a place counted from the S/T acceptor
Experiment: relative phosphorylation of the sub-library (ratio to the mean residue at this position); human; higher = residue favoured
Procedure, shortened: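 Spots on streptavidin membranes were phosphorimaged and quantified by densitometry to measure phosphorylation of biotinylated degenerate peptide sub-libraries by purified recombinant kinases, human or orthologue constructs. The reactions ran in 384-well plates for 90 min under kinase-specific conditions, with peptides at 50 μM and 50 μM ATP spiked with γ-32P-ATP. Relative sub-library phosphorylation is the ratio to the mean residue at that position.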

PRPF4B, construct: aa519-end, sequence (Q13523 519-1007, looked up): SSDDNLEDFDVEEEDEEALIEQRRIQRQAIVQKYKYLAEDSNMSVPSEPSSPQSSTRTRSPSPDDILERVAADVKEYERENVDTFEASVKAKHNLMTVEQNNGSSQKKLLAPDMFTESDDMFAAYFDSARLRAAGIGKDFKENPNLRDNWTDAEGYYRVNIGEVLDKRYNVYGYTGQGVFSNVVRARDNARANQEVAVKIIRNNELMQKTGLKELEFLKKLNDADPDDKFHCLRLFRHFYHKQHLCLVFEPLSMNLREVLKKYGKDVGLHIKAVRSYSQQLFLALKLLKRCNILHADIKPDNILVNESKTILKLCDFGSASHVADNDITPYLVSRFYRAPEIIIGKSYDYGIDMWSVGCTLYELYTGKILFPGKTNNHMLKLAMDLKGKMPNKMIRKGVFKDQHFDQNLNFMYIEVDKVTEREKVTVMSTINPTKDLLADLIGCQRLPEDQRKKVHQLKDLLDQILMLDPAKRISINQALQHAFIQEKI
RIPK1, construct: aa1-327, sequence (Q13546 1-327, looked up): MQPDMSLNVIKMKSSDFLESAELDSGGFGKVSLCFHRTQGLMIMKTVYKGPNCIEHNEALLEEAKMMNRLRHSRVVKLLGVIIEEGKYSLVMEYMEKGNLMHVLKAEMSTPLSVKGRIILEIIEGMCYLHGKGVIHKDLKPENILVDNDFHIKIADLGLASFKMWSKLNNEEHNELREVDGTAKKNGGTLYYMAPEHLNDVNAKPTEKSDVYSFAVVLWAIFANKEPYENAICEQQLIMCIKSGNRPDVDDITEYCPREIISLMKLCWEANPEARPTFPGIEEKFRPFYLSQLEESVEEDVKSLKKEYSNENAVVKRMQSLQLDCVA

PRPF4B, construct: aa519-end (from UniProt Q13523)
relative phosphorylation
Details	at +1	at +2	at +3	at +4	at -1	at -2	at -3	at -4	at -5
A fixed	0.571	0.959	0.8	0.921	1.05	1.22	1.02	1.06	0.939
D fixed	0.544	0.683	0.635	0.83	0.907	0.693	0.586	1.81	1.13
E fixed	0.929	0.685	0.59	0.808	1.25	0.553	0.512	1.16	0.966
F fixed	0.507	1.27	0.722	0.958	0.81	1.27	0.409	0.856	0.905
G fixed	0.774	0.741	1.05	1.4	0.744	1.3	8.94	1.77	0.991
H fixed	0.596	1.07	1.01	1.02	0.844	0.907	0.507	1.01	0.832
I fixed	0.68	1.42	0.911	0.934	0.863	1.21	0.404	0.681	0.831
K fixed	0.56	0.713	1.08	1.03	0.894	0.582	0.382	0.747	1.04
L fixed	0.548	0.954	0.91	0.9	1.03	0.866	0.41	0.866	0.83
M fixed	0.689	1.05	0.747	1.04	1.27	0.815	0.43	0.75	0.842
N fixed	0.665	0.968	1.05	0.83	0.826	0.745	0.538	1.08	0.931
P fixed	5.85	0.725	2.53	1.02	0.785	1.47	0.587	1.13	1.18
Q fixed	0.696	0.791	0.923	0.951	1.25	0.608	0.439	0.858	0.998
R fixed	0.686	0.868	1.42	1.15	1.58	0.625	0.502	0.73	1.28
V fixed	1.56	1.44	0.953	0.882	0.922	1	0.384	0.625	0.987
W fixed	0.532	1.52	0.846	1.31	1.01	2.09	0.512	1.04	1
Y fixed	0.612	1.16	0.825	1	0.969	1.04	0.435	0.812	1.31
pThr fixed	0.638	0.803	0.794	0.583	0.68	0.828	0.697	1.72	0.911
pTyr fixed	0.586	0.825	0.74	0.735	1.15	1.2	0.791	0.882	1.36

RIPK1, construct: aa1-327 (from UniProt Q13546)
relative phosphorylation
Details	at +1	at +2	at +3	at +4	at -1	at -2	at -3	at -4	at -5
A fixed	0.709	0.619	0.572	0.819	0.574	1.01	0.92	1.03	0.84
D fixed	0.248	0.612	0.489	0.846	0.592	0.374	0.536	0.614	0.642
E fixed	0.331	0.927	0.398	0.81	0.313	0.37	0.551	0.685	0.68
F fixed	1.91	1.28	2	0.939	0.793	0.734	0.896	1.04	1.09
G fixed	0.79	0.817	0.707	1.28	0.747	1.21	1.29	1.27	1.18
H fixed	0.809	1.29	1.04	1.07	1.52	1.18	0.977	0.908	1.12
I fixed	1.1	1.28	1.19	1.27	1.12	1.07	0.944	1.04	1.28
K fixed	1.33	0.639	0.517	0.762	1.83	1.3	1.27	1.06	1.1
L fixed	0.829	1.21	1.09	0.947	1.01	1.19	0.986	0.935	1.14
M fixed	1.38	1.34	1.34	1.11	1.18	1.04	1.08	1.13	1.2
N fixed	0.583	0.801	0.726	0.839	1.3	0.975	0.829	0.76	0.797
P fixed	0.198	0.568	0.355	1.14	0.453	1.11	0.927	1.02	0.833
Q fixed	1.19	0.891	0.703	0.787	0.85	0.796	0.743	0.689	0.667
R fixed	2.48	1.02	1.13	0.945	1.97	1.94	2.35	1.4	1.32
V fixed	0.96	1.03	0.917	1.04	1.03	1.26	0.845	1.22	1.16
W fixed	1.01	1.03	1.88	1.22	0.675	0.763	1.02	1.29	0.987
Y fixed	1.15	1.66	1.94	1.18	1.04	0.682	0.84	0.912	0.972
pThr fixed	0.704	0.999	0.696	1.06	0.761	1.34	1.15	1.08	0.87
pTyr fixed	0.391	0.788	0.54	0.968	0.683	0.719	1.19	0.795	0.72

Source: the supplement of paper PMC9876800
